Drawing on paper PMC2872913, this text covers fold weaker affinity against MBD not phosphorylated by aurora A for one substance.

The target in this experiment is taxol-stabilized microtubules. Nature of the experiment: co-sedimentation.

On to “p150^glued MBD-(His)6 after incubation with aurora A protein kinase and ATP (domain or fragment)”, for which the fold weaker affinity against MBD not phosphorylated by aurora A came to 5 fold.
